Measurements reported in PMC6873181.
Where two headings read alike, the source gives them in different places.

What was measured:
Settings in all cases: ligand
[1] = molecular target: human insulin receptor isoform A (human) (UniProt P06213)
[2] = molecular target: human IGF-1 receptor (human) (UniProt P08069)
[3] = molecular target: human insulin receptor isoform A (human) (UniProt P06213); remark: listed apart in the source
[4] = molecular target: human IGF-1 receptor (human) (UniProt P08069); remark: listed apart in the source
[5] = molecular target: human insulin receptor isoform A (human) (UniProt P06213); remark: listed apart in the source
[6] = molecular target: human IGF-1 receptor (human) (UniProt P08069); remark: listed apart in the source
[7] = molecular target: human insulin receptor isoform A (human) (UniProt P06213); remark: listed apart in the source
[8] = molecular target: human IGF-1 receptor (human) (UniProt P08069); remark: listed apart in the source
[9] = molecular target: human insulin receptor isoform A (human) (UniProt P06213); remark: listed apart in the source
[10] = molecular target: human IGF-1 receptor (human) (UniProt P08069); remark: listed apart in the source

Chain of UniProt P06213 (P06213 other isoform, or with tags, fused parts or gaps): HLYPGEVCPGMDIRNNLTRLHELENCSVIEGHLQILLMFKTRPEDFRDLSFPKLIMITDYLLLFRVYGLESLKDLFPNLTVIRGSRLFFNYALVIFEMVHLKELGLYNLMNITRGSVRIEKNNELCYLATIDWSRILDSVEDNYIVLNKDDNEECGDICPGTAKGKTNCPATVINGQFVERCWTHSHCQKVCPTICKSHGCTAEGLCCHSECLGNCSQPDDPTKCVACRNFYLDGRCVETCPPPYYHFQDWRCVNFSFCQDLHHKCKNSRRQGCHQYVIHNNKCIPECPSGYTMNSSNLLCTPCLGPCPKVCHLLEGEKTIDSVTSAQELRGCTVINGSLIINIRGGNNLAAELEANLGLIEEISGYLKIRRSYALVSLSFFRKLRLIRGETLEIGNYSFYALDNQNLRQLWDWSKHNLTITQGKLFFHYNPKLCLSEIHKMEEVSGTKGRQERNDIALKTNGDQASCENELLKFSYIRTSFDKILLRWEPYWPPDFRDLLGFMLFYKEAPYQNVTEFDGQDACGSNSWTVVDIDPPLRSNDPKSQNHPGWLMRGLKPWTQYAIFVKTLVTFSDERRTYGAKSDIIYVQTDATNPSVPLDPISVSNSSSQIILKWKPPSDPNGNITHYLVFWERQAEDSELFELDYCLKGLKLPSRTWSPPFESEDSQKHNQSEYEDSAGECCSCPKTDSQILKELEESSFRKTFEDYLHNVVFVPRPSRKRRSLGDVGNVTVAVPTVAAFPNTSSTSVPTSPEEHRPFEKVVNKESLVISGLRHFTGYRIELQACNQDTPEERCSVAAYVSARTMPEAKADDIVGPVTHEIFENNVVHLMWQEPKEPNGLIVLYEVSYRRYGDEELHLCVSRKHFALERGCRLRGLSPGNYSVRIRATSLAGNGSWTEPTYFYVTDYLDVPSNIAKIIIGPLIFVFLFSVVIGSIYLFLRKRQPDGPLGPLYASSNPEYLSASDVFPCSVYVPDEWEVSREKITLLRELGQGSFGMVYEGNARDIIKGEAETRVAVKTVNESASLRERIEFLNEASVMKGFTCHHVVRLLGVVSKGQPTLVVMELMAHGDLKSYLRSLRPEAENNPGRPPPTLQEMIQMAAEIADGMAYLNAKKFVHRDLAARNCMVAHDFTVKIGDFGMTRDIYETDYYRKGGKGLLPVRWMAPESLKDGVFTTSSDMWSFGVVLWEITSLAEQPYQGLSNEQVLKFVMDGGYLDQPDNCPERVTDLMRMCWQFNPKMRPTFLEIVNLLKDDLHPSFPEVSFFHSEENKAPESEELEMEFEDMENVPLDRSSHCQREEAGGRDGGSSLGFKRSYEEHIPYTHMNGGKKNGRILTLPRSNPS

## Asp-57–IGF-2 (from UniProt P01344 49-115)
[1]
  Kd: 2.96 nM
[2]
  Kd: 0.5 nM

## His-50–IGF-2 (from UniProt P01344 49-115)
[3]
  Kd: 2.1 nM
[4]
  Kd: 1.6 nM

## His-53–IGF-2 (from UniProt P01344 49-115)
[5]
  Kd: 4.1 nM
[6]
  Kd: 1.2 nM

## Thr-50–IGF-2 (from UniProt P01344 49-115)
[7]
  Kd: 2.7 nM
[8]
  Kd: 0.84 nM

## Val-53–IGF-2 (from UniProt P01344 49-115)
[9]
  Kd: 2.9 nM
[10]
  Kd: 1.5 nM
